# Laboratory results from IntAct's records for PubMed 31142615.
# Target: marh2_human MARCHF2 (UniProt Q9P0N8)
# Sequence (Q9P0N8 whole entry): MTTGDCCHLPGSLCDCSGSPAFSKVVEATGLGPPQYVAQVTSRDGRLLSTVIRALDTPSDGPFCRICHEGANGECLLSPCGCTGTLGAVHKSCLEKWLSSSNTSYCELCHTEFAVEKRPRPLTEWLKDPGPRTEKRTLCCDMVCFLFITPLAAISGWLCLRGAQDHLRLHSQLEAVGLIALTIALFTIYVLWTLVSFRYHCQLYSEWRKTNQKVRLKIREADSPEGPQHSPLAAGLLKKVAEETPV
# Endoplasmic reticulum-Golgi intermediate compartment protein 3 (Homo sapiens), Q9Y282 K6R;K8R, sequence (Q9Y282 whole entry K6R/K8R): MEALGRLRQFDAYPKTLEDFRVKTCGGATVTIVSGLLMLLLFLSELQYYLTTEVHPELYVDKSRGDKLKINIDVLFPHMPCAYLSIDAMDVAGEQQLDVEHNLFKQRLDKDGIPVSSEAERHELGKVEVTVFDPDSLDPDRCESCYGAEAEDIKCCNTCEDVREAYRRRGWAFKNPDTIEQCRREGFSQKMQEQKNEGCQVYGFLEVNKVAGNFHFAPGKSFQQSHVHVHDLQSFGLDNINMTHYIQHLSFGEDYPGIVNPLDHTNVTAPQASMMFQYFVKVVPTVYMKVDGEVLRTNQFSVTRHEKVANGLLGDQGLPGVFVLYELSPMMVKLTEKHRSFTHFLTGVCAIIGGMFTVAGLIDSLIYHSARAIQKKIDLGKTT
substance,measurement,value
"Endoplasmic reticulum-Golgi intermediate compartment protein 3 (Homo sapiens), Q9Y282 K6R;K8R",effect of a mutation on the interaction,with no effect
